Data reported in IntAct's records for PubMed 31515488.

B1: Microtubule-associated tumor suppressor candidate 2 (Homo sapiens), Q5JR59-3 (parent)
chain: MGHCCCKPYNCLQCLDKTNESALVKEKELSIELANIRDEVAFHTAKCEKLQKEKEELERRFEDEVKRLGWQQQAELQELEERLQLQFEAEMARLQEEHGDQLLSIRCQHQEQVEDLTASHDAALLEMENNHTVAITILQDDHDHKVQELMSTHELEKKELEENFEKLRLSLQDQVDTLTFQSQSLRDRARRFEEALRKNTEEQLEIALAPYQHLEEDMKSLKQVLEMKNQQIHEQEKKILELEKLAEKNIILEEKIQVLQQQNEDLKARIDQNTVVTRQLSEENANLQEYVEKETQEKKRLSRTNEELLWKLQTGDPTSPIKLSPTSPVYRGSSSGPSSPARVSTTPR
partner: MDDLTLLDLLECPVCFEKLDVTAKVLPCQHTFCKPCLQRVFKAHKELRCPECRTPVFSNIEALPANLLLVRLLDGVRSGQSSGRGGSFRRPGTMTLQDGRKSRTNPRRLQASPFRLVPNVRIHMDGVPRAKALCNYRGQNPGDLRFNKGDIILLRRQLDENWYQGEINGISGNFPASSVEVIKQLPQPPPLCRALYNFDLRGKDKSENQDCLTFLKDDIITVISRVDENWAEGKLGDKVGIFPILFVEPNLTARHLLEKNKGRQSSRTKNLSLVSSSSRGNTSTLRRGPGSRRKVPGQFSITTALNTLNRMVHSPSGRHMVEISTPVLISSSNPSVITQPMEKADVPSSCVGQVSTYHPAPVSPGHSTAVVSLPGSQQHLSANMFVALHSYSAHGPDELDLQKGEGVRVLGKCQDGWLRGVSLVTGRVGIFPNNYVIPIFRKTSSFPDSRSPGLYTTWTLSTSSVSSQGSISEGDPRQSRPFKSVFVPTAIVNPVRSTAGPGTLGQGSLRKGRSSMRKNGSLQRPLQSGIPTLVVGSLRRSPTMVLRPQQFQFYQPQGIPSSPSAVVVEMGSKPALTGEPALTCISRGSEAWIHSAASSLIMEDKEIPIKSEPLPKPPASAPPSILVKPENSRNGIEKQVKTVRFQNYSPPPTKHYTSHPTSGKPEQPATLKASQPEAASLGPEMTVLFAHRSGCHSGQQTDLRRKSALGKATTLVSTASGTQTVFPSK
B2: Zinc finger CCHC domain-containing protein 10 (Homo sapiens), Q8TBK6 (parent)
chain: MATPMHRLIARRQAFDTELQPVKTFWILIQPSIVISEANKQHVRCQKCLEFGHWTYECTGKRKYLHRPSRTAELKKALKEKENRLLLQQSIGETNVERKAKKKRSKSVTSSSSSSSDSSASDSSSESEETSTSSSSEDSDTDESSSSSSSSASSTTSSSSSDSDSDSSSSSSSSTSTDSSSDDEPPKKKKKK
B3: Hematopoietic prostaglandin D synthase (Homo sapiens), O60760 (parent)
chain: MPNYKLTYFNMRGRAEIIRYIFAYLDIQYEDHRIEQADWPEIKSTLPFGKIPILEVDGLTLHQSLAIARYLTKNTDLAGNTEMEQCHVDAIVDTLDDFMSCFPWAEKKQDVKEQMFNELLTYNAPHLMQDLDTYLGGREWLIGNSVTWADFYWEICSTTLLVFKPDLLDNHPRLVTLRKKVQAIPAVANWIKRRPQTKL
partner: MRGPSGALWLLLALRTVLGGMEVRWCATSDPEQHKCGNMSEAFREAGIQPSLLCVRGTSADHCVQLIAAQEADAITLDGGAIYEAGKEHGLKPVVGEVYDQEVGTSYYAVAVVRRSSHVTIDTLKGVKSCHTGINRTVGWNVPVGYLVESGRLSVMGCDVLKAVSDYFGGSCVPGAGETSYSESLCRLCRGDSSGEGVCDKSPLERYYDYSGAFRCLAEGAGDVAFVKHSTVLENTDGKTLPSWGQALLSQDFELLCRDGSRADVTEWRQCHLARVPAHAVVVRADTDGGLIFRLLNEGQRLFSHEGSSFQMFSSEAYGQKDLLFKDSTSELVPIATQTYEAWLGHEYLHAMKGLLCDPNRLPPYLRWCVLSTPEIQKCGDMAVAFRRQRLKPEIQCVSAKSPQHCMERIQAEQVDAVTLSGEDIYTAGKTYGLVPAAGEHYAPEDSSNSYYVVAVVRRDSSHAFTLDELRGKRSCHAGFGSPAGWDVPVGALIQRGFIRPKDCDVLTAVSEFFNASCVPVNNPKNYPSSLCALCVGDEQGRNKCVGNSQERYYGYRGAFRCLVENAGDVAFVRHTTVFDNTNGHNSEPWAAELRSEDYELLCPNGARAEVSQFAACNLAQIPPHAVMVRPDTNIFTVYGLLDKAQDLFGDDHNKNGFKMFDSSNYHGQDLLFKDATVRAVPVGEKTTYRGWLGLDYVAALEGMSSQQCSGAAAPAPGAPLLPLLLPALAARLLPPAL
B4: Notch homolog 2 N-terminal-like protein A (Homo sapiens), Q7Z3S9 (parent)
chain: MCVTYHNGTGYCKCPEGFLGEYCQHRDPCEKNRCQNGGTCVAQAMLGKATCRCASGFTGEDCQYSTSHPCFVSRPCLNGGTCHMLSRDTYECTCQVGFTGKECQWTDACLSHPCANGSTCTTVANQFSCKCLTGFTGQKCETDVNECDIPGHCQHGGTCLNLPGSYQCQCLQGFTGQYCDSLYVPCAPSPCVNGGTCRQTGDFTFECNCLPETVRRGTELWERDREVWNGKEHDEN
partner: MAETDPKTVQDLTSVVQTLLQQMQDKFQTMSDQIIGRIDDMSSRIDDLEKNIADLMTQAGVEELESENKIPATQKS
B5: TBC1 domain family member 7 (Homo sapiens), Q9P0N9 (parent)
chain: MTEDSQRNFRSVYYEKVGFRGVEEKKSLEILLKDDRLDTEKLCTFSQRFPLPSMYRALVWKVLLGILPPHHESHAKVMMYRKEQYLDVLHALKVVRFVSDATPQAEVYLRMYQLESGKLPRSPSFPLEPDDEVFLAIAKAMEEMVEDSVDCYWITRRFVNQLNTKYRDSLPQLPKAFEQYLNLEDGRLLTHLRMCSAAPKLPYDLWFKRCFAGCLPESSLQRVWDKVVSGSCKILVFVAVEILLTFKIKVMALNSAEKITKFLENIPQDSSDAIVSKAIDLWHKHCGTPVHSS
partner: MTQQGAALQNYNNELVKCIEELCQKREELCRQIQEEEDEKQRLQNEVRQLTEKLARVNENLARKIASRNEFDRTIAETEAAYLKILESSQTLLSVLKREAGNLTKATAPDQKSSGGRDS
B6: Transmembrane protein 79 (Homo sapiens), Q9BSE2 (parent)
chain: MTEQETLALLEVKRSDSPEKSSPQALVPNGRQPEGEGGAESPGAESLRVGSSAGSPTAIEGAEDGLDSTVSEAATLPWGTGPQPSAPFPDPPGWRDIEPEPPESEPLTKLEELPEDDANLLPEKAARAFVPIDLQCIERQPQEDLIVRCEAGEGECRTFMPPRVTHPDPTERKWAEAVVRPPGCSCGGCGSCGDREWLRAVASVGAALILFPCLLYGAYAFLPFDVPRLPTMSSRLIYTLRCGVFATFPIVLGILVYGLSLLCFSALRPFGEPRREVEIHRRYVAQSVQLFILYFFNLAVLSTYLPQDTLKLLPLLTGLFAVSRLIYWLTFAVGRSFRGFGYGLTFLPLLSMLMWNLYYMFVVEPERMLTATESRLDYPDHARSASDYRPRPWG

Variants of: B1
Conditions: with sh3r2_human SH3RF2, Q8TEC5

effect of a mutation on the interaction	Variant
with no effect	A89V

Variants of: B2
Conditions: with cep70_human CEP70, Q8NHQ1
Chain of cep70_human CEP70, Q8NHQ1 (Q8NHQ1 whole entry): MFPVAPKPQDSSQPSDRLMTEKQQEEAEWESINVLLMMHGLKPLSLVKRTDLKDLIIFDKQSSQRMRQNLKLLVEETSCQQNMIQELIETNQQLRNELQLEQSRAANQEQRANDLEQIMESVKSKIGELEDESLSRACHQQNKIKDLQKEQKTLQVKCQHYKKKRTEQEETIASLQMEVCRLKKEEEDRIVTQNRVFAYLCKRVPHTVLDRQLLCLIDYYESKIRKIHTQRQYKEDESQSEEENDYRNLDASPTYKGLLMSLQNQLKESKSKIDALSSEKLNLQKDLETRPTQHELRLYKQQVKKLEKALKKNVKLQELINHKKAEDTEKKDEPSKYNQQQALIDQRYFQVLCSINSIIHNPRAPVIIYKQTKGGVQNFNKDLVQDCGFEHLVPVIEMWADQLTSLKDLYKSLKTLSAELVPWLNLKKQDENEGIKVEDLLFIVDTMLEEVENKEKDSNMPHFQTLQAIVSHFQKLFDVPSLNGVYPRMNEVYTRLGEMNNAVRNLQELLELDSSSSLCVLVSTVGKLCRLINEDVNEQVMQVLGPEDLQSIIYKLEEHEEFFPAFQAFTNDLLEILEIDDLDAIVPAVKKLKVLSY

effect of a mutation on the interaction	Variant
with no effect	S153P

Variants of: B2
Conditions: with dzip3_human DZIP3, Q86Y13
Chain of dzip3_human DZIP3, Q86Y13 (Q86Y13 whole entry): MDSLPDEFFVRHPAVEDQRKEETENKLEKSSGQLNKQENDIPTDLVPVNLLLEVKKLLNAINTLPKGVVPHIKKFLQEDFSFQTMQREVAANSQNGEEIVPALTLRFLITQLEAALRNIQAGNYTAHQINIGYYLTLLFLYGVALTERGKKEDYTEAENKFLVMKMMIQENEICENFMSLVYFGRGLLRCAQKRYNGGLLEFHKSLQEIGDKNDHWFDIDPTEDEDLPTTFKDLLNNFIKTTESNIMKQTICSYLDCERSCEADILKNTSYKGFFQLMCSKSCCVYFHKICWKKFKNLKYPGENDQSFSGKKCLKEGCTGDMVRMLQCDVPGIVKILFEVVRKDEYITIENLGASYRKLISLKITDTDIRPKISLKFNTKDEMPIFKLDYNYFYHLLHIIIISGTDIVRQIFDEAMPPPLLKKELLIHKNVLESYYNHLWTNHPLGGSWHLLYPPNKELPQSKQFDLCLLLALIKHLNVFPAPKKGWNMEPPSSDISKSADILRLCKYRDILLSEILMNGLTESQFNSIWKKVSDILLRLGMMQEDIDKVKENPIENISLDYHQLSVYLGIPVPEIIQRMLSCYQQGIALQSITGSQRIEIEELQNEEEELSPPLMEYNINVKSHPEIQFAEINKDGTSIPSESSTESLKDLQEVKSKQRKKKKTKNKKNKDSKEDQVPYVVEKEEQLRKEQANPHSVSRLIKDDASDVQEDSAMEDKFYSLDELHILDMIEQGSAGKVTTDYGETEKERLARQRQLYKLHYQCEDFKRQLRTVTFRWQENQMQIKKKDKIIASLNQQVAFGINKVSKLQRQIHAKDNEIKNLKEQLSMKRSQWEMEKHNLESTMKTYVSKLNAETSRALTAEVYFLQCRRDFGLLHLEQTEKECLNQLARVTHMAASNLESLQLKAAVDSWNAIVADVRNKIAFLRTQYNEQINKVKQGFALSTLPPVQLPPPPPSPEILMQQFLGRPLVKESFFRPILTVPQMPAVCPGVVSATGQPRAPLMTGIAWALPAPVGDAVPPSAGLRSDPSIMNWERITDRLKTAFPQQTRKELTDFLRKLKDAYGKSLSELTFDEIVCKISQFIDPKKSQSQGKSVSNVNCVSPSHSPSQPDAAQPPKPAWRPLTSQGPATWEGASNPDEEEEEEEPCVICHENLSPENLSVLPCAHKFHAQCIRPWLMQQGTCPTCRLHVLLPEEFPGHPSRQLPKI

effect of a mutation on the interaction	Variant
with no effect	S153P

Variants of: B3
Conditions: with trfm_human MELTF

effect of a mutation on the interaction	Variant
disrupting interaction strength	M128T

Variants of: B4
Conditions: with hsbp1_human HSBP1, O75506

effect of a mutation on the interaction	Variant
with no effect	R74Q
with no effect	A115T

Variants of: B5
Conditions: with ssna1_human SSNA1, O43805

effect of a mutation on the interaction	Variant
disrupting interaction strength	L67W

Variants of: B6
Conditions: with pspc_human SFTPC

effect of a mutation on the interaction	Variant
with no effect	V147M

Variants of: B6
Conditions: with sarco_human SLN

effect of a mutation on the interaction	Variant
with no effect	V147M

Variants of: B6
Conditions: with sc22a_human SEC22A

effect of a mutation on the interaction	Variant
with no effect	V147M

Variants of: B6
Conditions: with tx264_human TEX264, Q9Y6I9
Chain of tx264_human TEX264, Q9Y6I9 (Q9Y6I9 whole entry): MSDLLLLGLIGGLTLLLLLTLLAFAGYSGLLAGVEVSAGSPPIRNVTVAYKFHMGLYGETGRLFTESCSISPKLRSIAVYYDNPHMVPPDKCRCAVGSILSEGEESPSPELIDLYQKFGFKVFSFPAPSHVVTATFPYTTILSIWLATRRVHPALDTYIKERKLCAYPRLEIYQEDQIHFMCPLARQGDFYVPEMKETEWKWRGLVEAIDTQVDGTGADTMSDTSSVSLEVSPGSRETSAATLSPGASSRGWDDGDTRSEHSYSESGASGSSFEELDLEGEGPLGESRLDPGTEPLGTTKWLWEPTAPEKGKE

effect of a mutation on the interaction	Variant
with no effect	V147M
